Laboratory results: patent US20060253917A1 (published 2006)

Columns and labels:
OsMADS45 aa 75-249 = target: T1, OsMADS45 aa 75-249 (Oryza sativa, UniProt P0C5B0 75-249); test: Y2H; output trait library
T1 construct: prey, AD fusion; also called PN20231
T1 sequence: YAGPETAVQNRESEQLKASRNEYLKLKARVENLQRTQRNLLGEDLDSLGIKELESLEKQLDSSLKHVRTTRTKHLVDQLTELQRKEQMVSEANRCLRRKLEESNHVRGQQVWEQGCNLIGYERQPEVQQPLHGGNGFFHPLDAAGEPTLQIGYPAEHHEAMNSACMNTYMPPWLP
Method in brief: (§1)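 Protein-protein interactions were detected in an automated, high-throughput yeast two-hybrid assay from Myriad Genetics Inc. (Salt Lake City, Utah), with a bait clone encoding a defined amino-acid fragment of a rice protein screened against the input trait or output trait rice prey library. Interacting proteins were identified by BLAST comparison of the encoding sequences of retrieved prey clones against databases.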

OsFDRMADS6 aa 1-186 = target: T2, OsFDRMADS6 aa 1-186 (Oryza sativa, UniProt P0C5B1 1-186); test: Y2H; output trait library
T2 construct: prey, AD fusion; also called PN19766
T2 sequence: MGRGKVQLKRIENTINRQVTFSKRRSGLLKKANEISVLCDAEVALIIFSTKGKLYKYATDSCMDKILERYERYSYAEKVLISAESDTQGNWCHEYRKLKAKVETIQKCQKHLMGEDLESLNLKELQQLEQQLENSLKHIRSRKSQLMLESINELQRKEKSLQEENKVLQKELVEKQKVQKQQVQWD
Method in brief: as §1

OsMADS8 aa 107-248 = target: T3, OsMADS8 aa 107-248 (Oryza sativa, UniProt Q9SAR1 107-248); test: Y2H; output trait library
T3 construct: prey, AD fusion; also called PN20778; O. sativa MADS box protein MADS8
T3 sequence: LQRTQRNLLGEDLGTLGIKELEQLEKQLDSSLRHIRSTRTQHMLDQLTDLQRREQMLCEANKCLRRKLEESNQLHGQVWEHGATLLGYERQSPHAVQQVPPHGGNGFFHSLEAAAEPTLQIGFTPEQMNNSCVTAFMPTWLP
Method in brief: as §1

OsMADS1 aa 95-257 = target: T4, OsMADS1 aa 95-257 (Oryza sativa, UniProt A2XDY1 95-257); test: Y2H; output trait library
T4 construct: prey, AD fusion; also called PN19788
T4 sequence: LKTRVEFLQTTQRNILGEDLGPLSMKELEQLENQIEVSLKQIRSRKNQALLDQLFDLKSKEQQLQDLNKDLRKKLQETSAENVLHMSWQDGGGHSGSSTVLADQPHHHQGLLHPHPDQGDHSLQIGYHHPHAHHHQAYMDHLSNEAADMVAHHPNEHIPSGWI
Method in brief: as §1

OsMADS6 aa 116-250 = target: T5, OsMADS6 aa 116-250 (Oryza sativa, UniProt Q6EU39 116-250); test: Y2H; output trait library
T5 construct: prey, AD fusion; also called PN20233
T5 sequence: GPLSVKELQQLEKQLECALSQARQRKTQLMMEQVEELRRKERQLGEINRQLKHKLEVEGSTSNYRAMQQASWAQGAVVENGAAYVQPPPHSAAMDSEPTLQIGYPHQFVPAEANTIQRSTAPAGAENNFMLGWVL
Method in brief: as §1

OsFDRMADS8 aa 53-233 = target: T6, OsFDRMADS8 aa 53-233 (Oryza sativa, UniProt A2Z9Q7 53-233); test: Y2H; output trait library
T6 construct: prey, AD fusion; also called PN20698
T6 sequence: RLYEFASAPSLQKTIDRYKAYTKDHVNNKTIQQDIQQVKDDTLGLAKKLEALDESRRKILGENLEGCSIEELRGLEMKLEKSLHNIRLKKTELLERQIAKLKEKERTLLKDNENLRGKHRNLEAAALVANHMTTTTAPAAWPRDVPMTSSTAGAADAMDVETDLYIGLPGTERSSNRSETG
Method in brief: as §1

OsMADS5 aa 109-225 = target: T7, OsMADS5 aa 109-225 (Oryza sativa, UniProt A2Y9P0 109-225); test: Y2H; output trait library
T7 construct: prey, AD fusion; also called PN20770
T7 sequence: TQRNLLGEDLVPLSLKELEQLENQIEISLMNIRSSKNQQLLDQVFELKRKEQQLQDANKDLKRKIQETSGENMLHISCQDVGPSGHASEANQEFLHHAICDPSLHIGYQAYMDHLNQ
Method in brief: as §1

OsMADS8 aa 75-248 = target: T8, OsMADS8 aa 75-248 (Oryza sativa, UniProt Q9SAR1 75-248); test: Y2H; input trait library
T8 construct: prey, AD fusion; also called PN20778
T8 sequence: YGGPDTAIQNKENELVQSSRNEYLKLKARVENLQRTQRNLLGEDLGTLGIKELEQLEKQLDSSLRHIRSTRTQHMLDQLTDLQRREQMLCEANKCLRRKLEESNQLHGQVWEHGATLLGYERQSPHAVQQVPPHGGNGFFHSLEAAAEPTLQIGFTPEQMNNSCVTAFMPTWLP
Method in brief: as §1

OsMADS17 aa 106-249 = target: T9, OsMADS17 aa 106-249 (Oryza sativa, UniProt Q7XUN2 106-249); test: Y2H; input trait library
T9 construct: prey, AD fusion; also called PN20914; O. sativa MADS box transcription factor MADS17
T9 sequence: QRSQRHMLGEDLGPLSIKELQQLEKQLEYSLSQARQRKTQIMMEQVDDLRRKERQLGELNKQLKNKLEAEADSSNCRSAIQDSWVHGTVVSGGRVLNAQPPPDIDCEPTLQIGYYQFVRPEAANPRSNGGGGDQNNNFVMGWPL
Method in brief: as §1

OsMADS1 aa 100-231 = target: T10, OsMADS1 aa 100-231 (Oryza sativa, UniProt A2XDY1 100-231); test: Y2H; input trait library
T10 construct: prey, AD fusion; also called PN19788
T10 sequence: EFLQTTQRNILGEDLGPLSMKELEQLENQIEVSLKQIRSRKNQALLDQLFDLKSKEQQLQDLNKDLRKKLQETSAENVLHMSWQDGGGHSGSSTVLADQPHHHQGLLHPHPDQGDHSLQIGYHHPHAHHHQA
Method in brief: as §1

OsPN22834 aa 112-278 = target: T11, OsPN22834 aa 112-278 (Oryza sativa, UniProt Q01IK0 110-276); test: Y2H; input trait library
T11 construct: prey, AD fusion; also called Novel protein PN22834, similar to Oshox6, fragment
T11 sequence: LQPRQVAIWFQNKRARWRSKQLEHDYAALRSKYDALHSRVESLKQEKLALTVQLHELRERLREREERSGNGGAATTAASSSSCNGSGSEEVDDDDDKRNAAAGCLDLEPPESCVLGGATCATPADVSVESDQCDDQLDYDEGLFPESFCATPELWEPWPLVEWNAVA
Method in brief: as §1

OsMADS45 aa 96-249 = target: T12, OsMADS45 aa 96-249 (Oryza sativa, UniProt P0C5B0 96-249); test: Y2H; input trait library
T12 construct: prey, AD fusion; also called PN20231
T12 sequence: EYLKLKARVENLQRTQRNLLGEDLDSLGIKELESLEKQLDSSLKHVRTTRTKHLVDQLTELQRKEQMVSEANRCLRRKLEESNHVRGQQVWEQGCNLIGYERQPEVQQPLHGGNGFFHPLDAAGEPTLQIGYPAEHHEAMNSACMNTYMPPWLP
Method in brief: as §1

OsRAP1B aa 30-180 = target: T13, OsRAP1B aa 30-180 (Oryza sativa, UniProt Q10CQ1 30-180); test: Y2H; input trait library
T13 construct: bait, Gal4 DBD fusion; also called PN20232
T13 sequence: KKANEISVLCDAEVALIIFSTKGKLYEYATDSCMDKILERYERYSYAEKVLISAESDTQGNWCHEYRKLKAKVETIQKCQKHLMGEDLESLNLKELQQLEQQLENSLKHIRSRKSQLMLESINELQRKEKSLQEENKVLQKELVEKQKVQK
Method in brief: as §1

OsBAA81880 aa 24-203 = target: T14, OsBAA81880 aa 24-203 (Oryza sativa, UniProt Q9XJ66 24-203); test: Y2H; output trait library
T14 construct: prey, AD fusion; also called PN20837
T14 sequence (Q9XJ66 24-203): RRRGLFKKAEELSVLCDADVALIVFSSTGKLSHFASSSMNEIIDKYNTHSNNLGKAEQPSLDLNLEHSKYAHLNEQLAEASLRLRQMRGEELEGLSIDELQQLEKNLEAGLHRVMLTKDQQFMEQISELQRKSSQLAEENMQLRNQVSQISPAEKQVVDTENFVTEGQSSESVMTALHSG
Method in brief: as §1

OsBAA81880 aa 2-168 = target: T15, OsBAA81880 aa 2-168 (Oryza sativa, UniProt Q9XJ66 2-168); test: Y2H; output trait library
T15 construct: prey, AD fusion; also called PN20837; O. sativa MADS box-like protein
T15 sequence (Q9XJ66 2-168): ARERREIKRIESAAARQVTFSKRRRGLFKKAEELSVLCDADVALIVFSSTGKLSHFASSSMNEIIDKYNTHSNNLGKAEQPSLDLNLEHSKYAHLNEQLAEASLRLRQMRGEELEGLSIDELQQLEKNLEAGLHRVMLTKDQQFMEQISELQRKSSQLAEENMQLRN
Method in brief: as §1

OsMADS8 aa 79-248 = target: T16, OsMADS8 aa 79-248 (Oryza sativa, UniProt Q9SAR1 79-248); test: Y2H; output trait library
T16 construct: prey, AD fusion; also called PN20778
T16 sequence: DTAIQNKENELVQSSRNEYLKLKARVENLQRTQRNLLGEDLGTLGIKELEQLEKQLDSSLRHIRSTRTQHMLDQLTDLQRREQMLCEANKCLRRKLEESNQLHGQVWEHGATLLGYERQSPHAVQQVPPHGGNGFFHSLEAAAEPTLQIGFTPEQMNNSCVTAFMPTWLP
Method in brief: as §1

OsMADS5 aa 108-225 = target: T17, OsMADS5 aa 108-225 (Oryza sativa, UniProt A2Y9P0 108-225); test: Y2H; output trait library
T17 construct: prey, AD fusion; also called PN20770
T17 sequence: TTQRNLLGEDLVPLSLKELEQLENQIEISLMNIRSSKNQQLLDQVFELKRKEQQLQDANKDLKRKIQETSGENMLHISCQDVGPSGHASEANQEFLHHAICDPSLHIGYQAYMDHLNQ
Method in brief: as §1

OsMADS45 aa 69-249 = target: T18, OsMADS45 aa 69-249 (Oryza sativa, UniProt P0C5B0 69-249); test: Y2H; output trait library
T18 construct: prey, AD fusion; also called PN20231
T18 sequence: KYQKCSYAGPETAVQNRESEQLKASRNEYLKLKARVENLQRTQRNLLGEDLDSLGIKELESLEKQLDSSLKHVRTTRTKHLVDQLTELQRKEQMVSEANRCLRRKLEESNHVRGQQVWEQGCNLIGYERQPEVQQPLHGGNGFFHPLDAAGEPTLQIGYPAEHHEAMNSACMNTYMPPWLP
Method in brief: as §1

OsMADS1 aa 73-239 = target: T19, OsMADS1 aa 73-239 (Oryza sativa, UniProt A2XDY1 73-239); test: Y2H; output trait library
T19 construct: prey, AD fusion; also called PN19788
T19 sequence: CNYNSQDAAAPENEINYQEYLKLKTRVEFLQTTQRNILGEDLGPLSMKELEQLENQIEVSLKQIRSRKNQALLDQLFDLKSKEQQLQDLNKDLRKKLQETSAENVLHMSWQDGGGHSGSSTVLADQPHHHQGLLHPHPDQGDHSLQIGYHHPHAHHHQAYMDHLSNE
Method in brief: as §1

OsMADS45 aa 98-249 = target: T20, OsMADS45 aa 98-249 (Oryza sativa, UniProt P0C5B0 98-249); test: Y2H; output trait library
T20 construct: prey, AD fusion; also called PN20231
T20 sequence: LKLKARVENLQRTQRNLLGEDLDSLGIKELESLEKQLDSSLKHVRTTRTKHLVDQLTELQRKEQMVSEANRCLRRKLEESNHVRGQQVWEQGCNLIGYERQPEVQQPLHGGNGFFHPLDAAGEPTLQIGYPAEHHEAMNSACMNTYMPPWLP
Method in brief: as §1

Measured: binding result

B1: OsRAP1B aa 1-247 (other)
chain: MGRGKVQLKRIENKINRQVTFSKRRSGLLKKANEISVLCDAEVALIIFSTKGKLYEYATDSCMDKILERYERYSYAEKVLISAESDTQGNWCHEYRKLKAKVETIQKCQKHLMGEDLESLNLKELQQLEQQLENSLKHIRSRKSQLMLESINELQRKEKSLQEENKVLQKELVEKQKVQKQQLQWDQTQPQTISSSSSFMMREALPTTNISNYPAAAGERIEDVPAGQPQHVRIGLPPWMLSHING
notes: bait, Gal4 DBD fusion; also called PN20232
not listed: OsRAP1B aa 30-180 | OsBAA81880 aa 24-203 | OsBAA81880 aa 2-168 | OsMADS8 aa 79-248 | OsMADS5 aa 108-225 | OsMADS45 aa 69-249 | OsMADS1 aa 73-239 | OsMADS45 aa 98-249
binds: all other assays above

B2: OsMADS5 aa 106-225 (other)
chain: LQTTQRNLLGEDLVPLSLKELEQLENQIEISLMNIRSSKNQQLLDQVFELKRKEQQLQDANKDLKRKIQETSGENMLHISCQDVGPSGHASEANQEFLHHAICDPSLHIGYQAYMDHLNQ
notes: prey, AD fusion; also called PN20770
binds: OsRAP1B aa 30-180

B3: OsRAP1B aa 125-235 (other)
chain: LQQLEQQLENSLKHIRSRKSQLMLESINELQRKEKSLQEENKVLQKELVEKQKVQKQQLQWDQTQPQTISSSSSFMMREALPTTNISNYPAAAGERIEDVPAGQPQHVRIG
notes: as for B1
binds: OsBAA81880 aa 24-203 | OsBAA81880 aa 2-168 | OsMADS8 aa 79-248 | OsMADS5 aa 108-225 | OsMADS45 aa 69-249 | OsMADS1 aa 73-239 | OsMADS45 aa 98-249
